Data from article PMC8256705, “Putative hexameric glycosyltransferase functional unit revealed by the crystal structure of Acinetobacter baumannii MurG” (IUCrJ, 2021).

What was measured:
[1] = biological target: the molecule itself; assay: SEC-MALS; dimer-sized SEC peak; Superdex 200 10/300, 20 mM Tris-HCl pH 8.0, 150 mM NaCl, 0.4 ml/min, 25°C
[2] = biological target: the molecule itself; assay: SEC-MALS; highly oligomeric SEC peak; Superdex 200 10/300, 20 mM Tris-HCl pH 8.0, 150 mM NaCl, 0.4 ml/min, 25°C

B1: MurG from Acinetobacter baumannii (abMurG), full length, wild type (enzyme, UniProt A3M9Y1 1-365, looked up)
chain: MTDSQQSKPKHVMMMAAGTGGHVFPALAVAKQLQQQGCQVSWLATPTGMENRLLKDQNIPIYQIDIQGVRGNGVIRKLAAPFKILKATFSAMRYMKQLKVDAVAGFGGYVAGPGGLAARLLGIPVLIHEQNAVAGFTNAQLSRVAKVVCEAFPNTFPASEKVVTTGNPVRREITDILSPKWRYDEREQADKPLNILIVGGSLGAKALNERLPPALKQLEVPLNIFHQCGQQQVEATQALYADAPANLTIQVLPFIEDMAKAYSEADLIICRAGALTVTEVATAGVAAVFVPLPIAVDDHQTANAKFLADIGAAKICQQSTMTPEVLNQLFTTLMNRQLLTEMAVKARQHAQPNATQHVVDLIQKM
notes: MurG glycosyltransferase of Acinetobacter baumannii, full length, amino acids Met1-Met365 (365 amino acids); Theoretical mass with the C-terminal His tag is printed as 39.4 kDa; Found as a dimer and as a hexamer in solution; only the large-size SEC peak crystallized; also called wild-type abMurG; source: E. coli BL21 (DE3), purified (nickel-nitrilotriacetic acid resin, SEC); not shown: His tag, …
[1]
  stoichiometry N: 2
[2]
  stoichiometry N: 6
